Data as given in a protein production outcome set (Wang et al. 2014).

Assay: label from the status in PepcDB records
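Also: failed if final PepcDB status was selected cloned or expressed and not failed if soluble or beyond.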

Sequence	protein production
MQEKGNISIHTENIFPIIKKFLYSDHEIFLRELVSNAVDATQKLKRLAALGEYPGELGDTKVTVSVNKEAGTITITDRGIGMTAEEIKKYINQIAFSGATEFIEKYKDKTDTNQIIGHFGLGFYSAFMVSSNVEINTLSYQPNSKAAHWICDGSTEFEIKLSDKAERGSEITLHIAEDSLEFLETSRIHSILDKYCRFLPVEIEFEGEIINNPSPLWTKQPSELKDEDYIAFYKELYPMSEDPLFWIHLNVDYPFSLTGVLYFPKLKKDFEFQRNKIQLYSRQVFITDEVKDIVPEFLMLLHGVIDSPDIPLNVSRSFLQADGNVKKINSHITKKVADKLNELFNNDRAGFEAKWDDIGMFVKYGMISEEKFYDKAKNFCLLKNTDNALSTIEEYEQKIKPIQTDKNDKLVYLYSNNAVAQDIFIQAAKKKQYDVLLLDSVIDSHFLGQLESKLEKVQFKRIDSESVDKLIEKDEPKLSLLTKEQETQAEELFKKVVNNGKVIIKLEHLATDDMPVTIVISEFMRRMKDMAATSGQSMFGGFELTHEVVVNTNHPLIAKAIAAPEAEGEQLIKQTYQLGLLSQGLLQGAELSAFIERNMNALVK	failed
MQEKYNFGKVSSQHKNYSKIETMLRPKGFDKLDHYFRTELDIDLTDETIELLLNSVKAAFGKLFYGAEQRARWNGRDFIALADLNITKALEEHIKNFQKIEQDMGVDELLEYIAFIPPVEMNVGEDLKSEYRNIMGGLLLMHADVIKKATGERKPSREAMEFVAQIVDKVF	not failed
MQELLFIRLNELILLIYLFSIACYFFDFIKRFYKIRNIGFVTLGIVWVLQTISLSFYVTATNQVPLGNVFDVLFALAWLIISISIVISVIKQVNISIFLFNIIGFVFIAISTFQPMHYQGAGEKLNVINELLIVHVTFAIISYAIFAFAFVNSILYLIQFKNLKQKRFTQKYFRISSVATLEKVVFYNSLVGFLFIILSIILGAQWGINTIGMDIFVDPKVIMSVIITILYGLYLLLRVRQSISKHKLIYINIILFCLNMINLLFTSHVSDFHQWTGI	failed
MQENHLIDIARWSERPGPRGIPSICSAHPLVIEAAMLRAHREKAPVLIEATCNQVNQDGGYTGMTPEDFTRFVGAIADRIEFPREKILLGGDHLGPNPWKHLPADEAMAKAEAMITAYAKAGFTKLHLDTSMGCAGEPTALPDATTAARAARLAAVAEDAVGGRGGVLPVYIIGTEVPIPGGALEELDTLEVTAPEAAIETVRVHRAAFEEAGAAGAFSRVVGAVVQPGVEFGNENVIAYDRARAEKLSATLGQLHGMVFEAHSTDYQTPDALRELVADGFAILKVGPGLTFALREALYGLDQIAAFLFPAARERTLAEVTEAVMREEPANWAKYYHGSAEEQRLQRHFSYSDRIRYYWPHPKAAAAVDELMSLLDGVAIPETLISQFLAGSYARVRNGEVAPQAKPLALAAVDAVLQDYFAACRV	not failed
MQEYIEFFKAHTLLSLAWVGLFVMLVVSVIKSSFSKIKNVTHQELTIMVNRQDAKVVDVRSNDDFRKGHIVGAVNVTLADIKNNQVSALEKFKGSPIILVCNAGMTSSQAAQLLSKQGFENLYNLKGGMGEWQAANMPVSKSKR	failed
MQFFDGYHYHGTTFEQSYRCYPASFIDKPQLESGDKIIMPPSALDRLASLHIDYPMLFELRNAGIERVTHCGVLEFIAEEGMIYMPYWMMQNLLLQEGDIVRVRNVTLPKGTYVKLQPHTTDFLDISNPKAILETALRNYSCLTSGDSIMVPYNNKKYFIDIVETKPANAISIIETDCEVDFAPPLDYKEPERPTAPSAAKGPAKAEEVVDEPEPKFNPFTGSGRRLDGRPLAYEPAPASSSKGKQPVVANGNGQSSVASSSEKATRAQGKLVFGANGNRAPKEAAPKVGAAKETKKEEQEKKDEPKFQAFSGKKYSLRG	not failed
MQFIEKIGIVLATYNPNLEYFEKQIQSIKQQSWKNWVCHIVDDCSHSEYQVGIKNIIDNDPRFICHFHSHNLNHYYNFERGLKYCAQDKSITAISLADQDDIWHDDKLKILLKKLRSQKAVLIHSDLELINSYDQTIHPSAWDFEGRKPHKLSHDLLLLRNVVTGCSVLFCTSLLTDVLPFPPQNKISWYHDWWIALVASHRGKIVHIHKPLVWYRIHNANNVGVLKDSGKIHCELLLLCRKKFKINGNSYLVHRDFSKAFYRRFKRELNELGYTNPFDDRKLDFGWHILKLLYKSLLVGYNSEGAALRIGVLKLIFDIQRSYRIILYHCLKTFKSYYKNSQ	failed
MQFIWAALGLVCVALALIGVALPLLPTVPFLLLAAFFFARSSERLHTWLVTHRLFGPMILDWQQSGAIRPGAKKAATLSIAAVFGLSLVFAVPSHVLLIQAVVLSGVLIFIWTRPNG	failed
MQFKAEARRNKLMGLWVAEVLGKSGDEANAYAAEVVKADFEEAGHEDVMRKVLGDLDGKRPEAEVRAKYEGLMAVAKAQLMDEL	not failed
MQFKIIKAQELEKQQREKIAELCFAAFEEDPWSQYAFMQNAFHIIGLLGEDIVSHALWTDRVFTLNNHVTLKTAYIEYVTTDSTMRGRGLASKLLMYLINILTTKKYELAALQPEVEAFYRKLGWVSWGGNLYIKHNISIYKTDGIEVMLYPLSGGLKDQIVCSLKNDKICTDWREGELW	failed
MQFTDFSLDQRLLQSLKHMGIATPTAIQEQALPIALAGKDLMASSKTGSGKTLAFLLPALQRVISTRALSKRDPRVLILLPTRELAHQVYSQLRLLVANTQYKAISVLGGENFNDQAKALAKEPHFIVATPGRIADHLEQKNLFLNGLELLILDEADRMLDLGFAPQLKAINEAADHKRRQTLMFSATLDHSEINEIAAALLKNPLHVAIGTAHAEHQDISQRIYLCDHLDHKEALLSRLLSDESHKQVIIFTATRADTERLAAKLSAQGFATAALSGELKQAARNQIMDQFARGQQQILVTTDVASRGLDLLNVSLVINFDMPKFAEEYVHRIGRTGRAGAKGDAISLVGPKDWDSFKKVQLFLRKTFEISVIKGLEAKFTGLKDKPKSVATKGVVKANTKGKSKPKPNVVKAAPSRDKRFITGVDVGDAPMRKKPKAQLLQESDDEI	failed
MQHESPIIRRKSTRIYVGDVPIGDGAPIAVQSMTNTRTTDVEATVAQIRALEKVGADIVRVSVPTMEAAEAFKLIKQQVSVPLVADIHFDYRIALKVAEYGVDCLRINPGNIGNEERIRSVVDCARDKNIPIRIGVNGGSLEKDLQMKYGEPTPEALVESAMRHVDHLDRLNFDQFKVSVKASDVFLAVDSYRLLAKKIDQPLHLGITEAGGARAGAVKSAVGLGMLLSEGIGDTLRISLAADPVEEIKVGFDILKSLRIRSRGINFIACPSCSRQEFDVIGTVNALEQRLEDIITPMDVSIIGCVVNGPGEAEVSHLGLAGSNKKSAFYEDGKRQKERFDNNDLVNQLEAKIRAKASMMDSENRIEIKVQD	failed
MQHFKTKIEHFQIYIYFSAIILGILIGTNFPGISSILETLVAICIAILMFSMFSQIPFFELQKRVLNLKFVTALIIANFVILPILVYFLISIFNISSSAILIGLFLVLLTPCIDYVIVFTALGKGNAQYMLISTPILFVLQILLLPLYLTMFLDKSILTIIDIEPFIHSFFTFIIIPLLLALTLQLLSKKYYVMSQTLKATSWLPELFMSLVLFTVVGSQINKIANDLSVVVKVAPIYIIFMLIAPFIGYFTGKLFHLKPSILRTLAFSTSTRNALVVLPLALSLPDQWVTITTTVIITQTLIELIGELFYIKMIPSLIKS	failed
MQICDSYNQKNSLFNAMNRFIGAVNNMDQTVMVPSLLRDVPLDQEEEKEVTSFQDGDMYGSYVLLKSIRNDIEWGVLQAEERRKEKHGVTTTSLEVSRIEPNDKDLEKLFHYHLSGLHTVLAKLTRKANTLTNRYKQEIGIGGCGN	failed
